Legend:
[1] = Carboxylate reductase activity, N7-acetyl-7-aminoheptanoate to N7-acetyl-7-aminoheptanal, NADPH consumption at 340 nm; type: biochemical; conditions: enhanced by gene product of sfp, 2 mM substrate, 20 min, against empty vector control, FIG. 45
Experimental: The activity of each of the N-terminal His-tagged carboxylate reductases of SEQ ID NOs: 29 (GenBank Accession No. ABK71854.1), 37 (Genbank Accession No. EIV11143.1), and 38 (GenBank Accession No. ADG98140.1) (see Examples 4) for converting N7-acetyl-7-aminoheptanoate to N7-acetyl-7-aminoheptanal was assayed in triplicate in a buffer composed of a final concentration of 50 mM HEPES buffer (pH=7.5), 2 mM N7-acetyl-7-aminoheptanoate, 10 mM MgCl2, 1 mM ATP, and 1 mM NADPH. The assays were initiated by adding purified carboxylate reductase and phosphopantetheine transferase or the empty vector control to the assay buffer containing the N7-acetyl-7-aminoheptanoate then incubated at room temperature for 20 min. The consumption of NADPH was monitored by absorbance at 340 nm.

[2] = Carboxylate reductase activity, 7-hydroxyheptanoate to 7-hydroxyheptanal, NADPH consumption at 340 nm; type: biochemical; conditions: enhanced by gene product of sfp, 20 min, against empty vector control, FIG. 44
Experimental: A sequence encoding a His-tag was added to the genes from Mycobacterium marinum, Mycobacterium smegmatis, Segniliparus rugosus, Mycobacterium smegmatis, Mycobacterium massiliense, and Segniliparus rotundus that encode the carboxylate reductases of SEQ ID NOs: 25 (GenBank Accession No. ACC40567.1), 27 (GenBank Accession No. ABK75684.1), 29 (GenBank Accession No. ABK71854.1), 31 (GenBank Accession No. EFV11917.1), 37 (GenBank Accession No. EIV11143.1), and 38 (GenBank Accession No. ADG98140.1) such that N-terminal HIS tagged carboxylate reductases could be produced. Each of the modified genes was cloned into a pET Duet expression vector alongside a sfp gene encoding a His-tagged phosphopantetheine transferase from Bacillus subtilis, both under control of the T7 promoter.
Each expression vector was transformed into a BL21[DE3] E. coli host and the resulting recombinant E. coli strains were cultivated at 37° C. in a 250 mL shake flask culture containing 50 mL LB media and antibiotic selection pressure, with shaking at 230 rpm. Each culture was induced overnight at 37° C. using an auto-induction media.
The pellet from each induced shake flask culture was harvested via centrifugation. Each pellet was resuspended and lysed via sonication. The cell debris was separated from the supernatant via centrifugation. The carboxylate reductases and phosphopantetheine transferase were purified from the supernatant using Ni-affinity chromatography, diluted 10-fold into 50 mM HEPES buffer (pH=7.5) and concentrated via ultrafiltration.
Enzyme activity (i.e., 7-hydroxyheptanoate to 7-hydroxyheptanal) assays were performed in triplicate in a buffer composed of a final concentration of 50 mM HEPES buffer (pH=7.5), 2 mM […], 10 mM MgCl2, 1 mM ATP, and 1 mM NADPH. Each enzyme activity assay reaction was initiated by adding purified carboxylate reductase and phosphopantetheine transferase or the empty vector control to the assay buffer containing the 7-hydroxyheptanoate and then incubated at room temperature for 20 min. The consumption of NADPH was monitored by absorbance at 340 nm.

B1: SEQ ID NO: 29: Mycobacterium smegmatis carboxylate reductase (protein)
chain: MTSDVHDATDGVTETALDDEQSTRRIAELYATDPEFAAAAPLPAVVDAAHKPGLRLAEILQTLFTGYGDRPALGYRARELATDEGGRTVTRLLPRFDTLTYAQVWSRVQAVAAALRHNFAQPIYPGDAVATIGFASPDYLTLDLVCAYLGLVSVPLQHNAPVSRLAPILAEVEPRILTVSAEYLDLAVESVRDVNSVSQLVVFDHHPEVDDHRDALARAREQLAGKGIAVTTLDAIADEGAGLPAEPIYTADHDQRLAMILYTSGSTGAPKGAMYTEAMVARLWTMSFITGDPTPVINVNFMPLNHLGGRIPISTAVQNGGTSYFVPESDMSTLFEDLALVRPTELGLVPRVADMLYQHHLATVDRLVTQGADELTAEKQAGAELREQVLGGRVITGFVSTAPLAAEMRAFLDITLGAHIVDGYGLTETGAVTRDGVIVRPPVIDYKLIDVPELGYFSTDKPYPRGELLVRSQTLTPGYYKRPEVTASVFDRDGYYHTGDVMAETAPDHLVYVDRRNNVLKLAQGEFVAVANLEAVFSGAALVRQIFVYGNSERSFLLAVVVPTPEALEQYDPAALKAALADSLQRTARDAELQSYEVPADFIVETEPFSAANGLLSGVGKLLRPNLKDRYGQRLEQMYADIAATQANQLRELRRAAATQPVIDTLTQAAATILGTGSEVASDAHFTDLGGDSLSALTLSNLLSDFFGFEVPVGTIVNPATNLAQLAQHIEAQRTAGDRRPSFTTVHGADATEIRASELTLDKFIDAETLRAAPGLPKVTTEPRTVLLSGANGWLGRFLTLQWLERLAPVGGTLITIVRGRDDAAARARLTQAYDTDPELSRRFAELADRHLRVVAGDIGDPNLGLTPEIWHRLAAEVDLVVHPAALVNHVLPYRQLFGPNVVGTAEVIKLALTERIKPVTYLSTVSVAMGIPDFEEDGDIRTVSPVRPLDGGYANGYGNSKWAGEVLLREAHDLCGLPVATFRSDMILAHPRYRGQVNVPDMFTRLLLSLLITGVAPRSFYIGDGERPRAHYPGLTVDFVAEAVTTLGAQQREGYVSYDVMNPHDDGISLDVFVDWLIRAGHPIDRVDDYDDWVRRFETALTALPEKRRAQTVLPLLHAFRAPQAPLRGAPEPTEVFHAAVRTAKVGPGDIPHLDEALIDKYIRDLREFGLI
modifications: Mycobacterium smegmatis (strain ATCC 700084 / mc(2)155)
notes: Mycobacterium smegmatis carboxylate reductase
Q: With B1 as the molecule, how does the “acceptance of N7-acetyl-7-aminoheptanoate as substrate, forming N7-acetyl-7-aminoheptanal” value [1] read?
A: Its value is “accepted N7-acetyl-7-aminoheptanoate as substrate”.

Q: What about the “acceptance of 7-hydroxyheptanoate as substrate, forming 7-hydroxyheptanal” value [2] of the same molecule?
A: The value was “accepted 7-hydroxyheptanoate as substrate”.

Source: US10801046B2, “Methods and materials for biosynthesizing multifunctional, multivariate molecules via carbon chain modification” (INVISTA NORTH AMERICA S.A.R.L., priority 2016, dated 2020)
